The text below walks through data of patent publication US20220378833A1 (Novartis, published 2022).

Assay [1] has as its target T1, His-Avidin-FKBP (wild-type FKBP) (biotinylated (residue not stated; construct carries an avi-tag)).
T1 construct: also called biotinylated wild-type FKBP; biotinylated FKBP
Briefly: AlphaLISA direct assay: 30 nM Flag-FRB and 30 nM biotinylated FKBP; the titrated species is everolimus (EC50 is an everolimus concentration). How it is done:
(§1) FRB mutations were also ranked in an alternative assay format. […] All dilutions were made in 1 × AlphaLISA Immunoassay buffer (PerkinElmer). Anti-Flag acceptor beads (PerkinElmer) were added at 10 ug/ml final concentration and incubated for one hour at room temperature. Streptavidin donor beads (PerkinElmer), were then added at a final concentration of 40 ug/ml and the plate was protected from light and incubated for 30 minutes at room temperature. The plate was then read on the PerkinElmer EnVision Multiplate reader equipped with the Alpha Module using excitation of 680 nm and a 570 nm Emission filter.
For orientation: In Alpha technology, singlet oxygen from a donor bead excites a nearby acceptor bead.

Assay [2] has as its target T1, His-Avidin-FKBP (wild-type FKBP). Briefly: AlphaLISA direct assay, Flag-FRB and biotinylated FKBP, everolimus titrated. How it is done: as §1

Where a chain is given by its changes, count along the chain named. In names and notes the source's numbering stands.

T1 sequence (chain, as listed by the source limits assumed): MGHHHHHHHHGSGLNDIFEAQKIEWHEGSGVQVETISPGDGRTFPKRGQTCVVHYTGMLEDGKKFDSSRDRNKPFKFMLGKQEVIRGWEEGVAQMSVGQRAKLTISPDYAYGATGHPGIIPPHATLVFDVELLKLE

B1: His-FLAG-FRB (wild-type FRB) (other)
chain: MGHHHHHHHHGSDYKDDDDKGSASRILWHEMWHEGLEEASRLYFGERNVKGMFEVLEPLHAMMERGPQTLKETSFNQAYGRDLMEAQEWCRKYMKSGNVKDLTQAWDLYYHVFRRISKTS
notes: also called wild type Flag-FRB
Broadly, the EC50 is the concentration that produces a half-maximal response. A lower EC50 goes with higher potency in that assay. In assay [1], B1 yielded an EC50 of 3.9 nM.

B2: His-FLAG-FRB E2032I (other)
chain: B1 chain with E37I
notes: also called E20321 (OCR form)
In turn, B2 registered an EC50 in assay [1] of 2.46 nM.

B3: His-FLAG-FRB T2098L (other)
chain: B1 chain with T103L
With B3, the “fold improvement over wild type FRB” value in assay [2] stood at 3 fold. The molecule also yielded an EC50 in assay [1] of 1.44 nM.

B4: His-FLAG-FRB E2032L (other)
chain: B1 chain with E37L
B4 registered an EC50 in assay [1] of 2.15 nM.
